This note sets out measurements from patent publication US20240270806A1 (Chugai, published 2024).

Where a chain is given by its changes, count along the chain named. Names and notes keep the numbering of the source.

Test [1] deals with T1, Human IL-12 (human, UniProt P29460 23-328; P29459 23-219).
T1 construct: also called human Interleukin-12
T1 sequence (looked up) 1: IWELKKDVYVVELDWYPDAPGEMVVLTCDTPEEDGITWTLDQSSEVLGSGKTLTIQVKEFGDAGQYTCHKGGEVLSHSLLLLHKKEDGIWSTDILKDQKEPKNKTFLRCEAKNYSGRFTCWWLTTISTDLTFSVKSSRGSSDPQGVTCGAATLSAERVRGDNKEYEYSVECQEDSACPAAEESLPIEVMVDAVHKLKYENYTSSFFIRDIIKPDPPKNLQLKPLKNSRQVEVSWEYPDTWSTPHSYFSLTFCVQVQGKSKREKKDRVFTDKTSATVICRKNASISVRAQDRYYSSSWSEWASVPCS
T1 sequence (looked up) 2: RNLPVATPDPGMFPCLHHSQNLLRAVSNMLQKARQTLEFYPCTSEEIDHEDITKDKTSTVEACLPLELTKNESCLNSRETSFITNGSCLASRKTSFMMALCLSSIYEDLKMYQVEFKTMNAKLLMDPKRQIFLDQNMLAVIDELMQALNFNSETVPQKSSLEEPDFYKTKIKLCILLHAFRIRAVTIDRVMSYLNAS
Kind of test: SPR, BIACORE T200, 37 degrees C, pH 7.4; antibody captured by anti-human Fc antibody, human IL-12 injected at 5 and 20 nM; 1:1 binding model. The method, then:
The affinity of anti-IL12 antibodies binding to human IL-12 at pH 7.4 was determined at 37 degrees C. using BIACORE® T200 instrument (GE Healthcare). […] (GE Healthcare) was immobilized onto all flow cells of a CM4 sensor chip using amine coupling kit (GE Healthcare). All antibodies and analytes were prepared in ACES pH 7.4 containing 20 mM ACES, 150 mM NaCl, 0.05% Tween 20, 0.005% NaN₃. Each antibody was captured onto the sensor surface by anti-human Fc antibody. Antibody capture levels were aimed at 50 resonance unit (RU). Human IL-12 was injected at 5 and 20 nM, followed by dissociation. Sensor surface was regenerated each cycle with 3M MgCl₂.
Background: SPR reads the build-up and loss of mass on a sensor chip optically.

Test [2] has as its target T2, Human IL-12 receptor (human IL-12Rb1 and IL-12Rb2) (human, UniProt P42701 24-662; Q99665 24-862). Kind of test: cell-based or functional assay.
Test [3] concerns the target T2, Human IL-12 receptor (human IL-12Rb1 …). Description: cell-based or functional assay. The source holds these as a separate data set.
The target is the same in test [4]. Description: cell-based or functional assay. This is another data set of the same source.

T2 sequence (Q99665 24-862, chain 2 of 2, other chains not shown): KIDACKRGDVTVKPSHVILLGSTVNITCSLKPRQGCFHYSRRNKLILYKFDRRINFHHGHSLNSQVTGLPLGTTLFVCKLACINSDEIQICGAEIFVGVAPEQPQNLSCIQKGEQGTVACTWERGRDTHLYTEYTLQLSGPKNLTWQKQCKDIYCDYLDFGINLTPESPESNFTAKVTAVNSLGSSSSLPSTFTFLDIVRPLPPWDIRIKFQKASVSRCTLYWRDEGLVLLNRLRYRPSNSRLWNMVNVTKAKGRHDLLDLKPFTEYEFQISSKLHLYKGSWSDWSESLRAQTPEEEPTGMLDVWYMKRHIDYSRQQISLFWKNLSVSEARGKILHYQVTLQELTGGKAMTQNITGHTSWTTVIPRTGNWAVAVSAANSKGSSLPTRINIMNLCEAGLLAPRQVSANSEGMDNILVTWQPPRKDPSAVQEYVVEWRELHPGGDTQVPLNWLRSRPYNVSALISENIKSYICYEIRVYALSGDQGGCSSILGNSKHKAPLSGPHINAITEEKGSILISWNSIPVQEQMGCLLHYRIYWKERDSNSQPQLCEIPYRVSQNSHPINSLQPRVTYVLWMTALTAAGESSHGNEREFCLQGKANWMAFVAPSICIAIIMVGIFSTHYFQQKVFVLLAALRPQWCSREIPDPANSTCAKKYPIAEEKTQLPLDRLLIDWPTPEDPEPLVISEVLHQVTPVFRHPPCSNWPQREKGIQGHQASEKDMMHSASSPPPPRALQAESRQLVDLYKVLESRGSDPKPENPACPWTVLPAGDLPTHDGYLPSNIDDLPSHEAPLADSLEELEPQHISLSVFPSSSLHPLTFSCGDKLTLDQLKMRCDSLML

B1: Anti-IL-12 antibody, Ab1, comprising VH release enhancing mutations (Ab101H89-12aa0054-C8/Ab102L69-SK1) (antibody, V domains shown)
VH: QVQLVQSGAEVKKPGSSVKVSCKASGGTFSDYYLHWSRQAPGQGLEWMGWIDPENGDTEYAPKFQGRVTITADESTSTAYMELSSLRSEDTAVYYCARNKELRYIDVWGQGTLVTVSS
VL: DIVMTQSPLSLPVTPGEPASISCRASQSISINLHWYQQKPGQAPRQLIAFASQSISGVPSRFSGSGSGTDFTLTISSLQPEDFATYYCQQSNSFPLTFGQGTKVEIKR
notes: Homodimer of a light and a heavy chain; Mutations V37S, F100aI / L46Q, Y49A; also called Ab101H89/Ab102L69
B1: the Kd (commonly a measure of binding affinity in units of concentration) in test [1] is 6.52 nM. This counts as single-digit nanomolar.

B2: Anti-IL-12 antibody Ab1, variable region variant Ab101H/Ab102L (antibody, V domains shown)
VH: B1 VH with S37V, I105F
VL: B1 VL with Q46L, A49Y
Regarding B2, in test [1], the Kd amounted to 1.45 nM and the kon (commonly the rate constant with which the complex forms) is 1.9e+06 M⁻¹ s⁻¹.

B3: Anti-IL-12 antibody Ab1, variable region variant Ab101H725/Ab102L1087 (antibody, V domains shown)
VH: B1 VH with G56Q, N99T
VL: B1 VL with A25S, Q27D
notes: Mutations V37S, G55Q, N95T, F100aI / A25S, Q27D, L46Q, Y49A
B3: the Kd in test [1] was 1.27 nM.

B4: Anti-IL-12 antibody Ab1, variable region variant Ab101H89/Ab102L994 (antibody, V domains shown)
VH: B1 VH
VL: B1 VL with N92Y
notes: Mutations V37S, F100aI / L46Q, Y49A, N92Y
Consider B4, for which binding in test [1] was characterised by a dissociation constant (Kd) of 3.51 nM.

B5: hIL12_His tag (ligand)
chain 1: T1 sequence (looked up) 1
chain 2: T1 sequence (looked up) 2
Consider B5, for which, in test [2], the “EC50 (read off the curve), IL-12 luciferase reporter assay (+ MTSP1) [all three graphs]” value was roughly 0.2 nM and the “EC50 (read off the curve), IL-12 luciferase reporter assay (without protease) [all three graphs]” value was roughly 0.2 nM. Moreover, in test [3], the “EC50 (read off the curve), IL-12 luciferase reporter assay (+ MTSP1)” value was roughly 0.2 nM and the “EC50 (read off the curve), IL-12 luciferase reporter assay (without protease)” value was roughly 0.2 nM. The “EC50 (read off the curve), IL-12 luciferase reporter assay (without protease) [left graph]” value in test [4] was roughly 0.1 nM.
